Assay results published in article PMC2822101 (Journal of molecular biology, 2009).

B1: DnaJ (natural protein, UniProt P08622 1-376, looked up)
chain: MAKQDYYEILGVSKTAEEREIRKAYKRLAMKYHPDRNQGDKEAEAKFKEIKEAYEVLTDSQKRAAYDQYGHAAFEQGGMGGGGFGGGADFSDIFGDVFGDIFGGGRGRQRAARGADLRYNMELTLEEAVRGVTKEIRIPTLEECDVCHGSGAKPGTQPQTCPTCHGSGQVQMRQGFFAVQQTCPHCQGRGTLIKDPCNKCHGHGRVERSKTLSVKIPAGVDTGDRIRLAGEGEAGEHGAPAGDLYVQVQVKQHPIFEREGNNLYCEVPINFAMAALGGEIEVPTLDGRVKLKVPGETQTGKLFRMRGKGVKSVRGGAQGDLLCRVVVETPVGLNERQKQLLQELQESFGGPTGEHNSPRSKSFFDGVKKFFDDLTR
B2: aggregated glucose-6-phosphate dehydrogenase (G6PDH) from Leuconostoc mesenteroides (enzyme, UniProt P11411 1-486, looked up)
chain: MVSEIKTLVTFFGGTGDLAKRKLYPSVFNLYKKGYLQKHFAIVGTARQALNDDEFKQLVRDSIKDFTDDQAQAEAFIEHFSYRAHDVTDAASYAVLKEAIEEAADKFDIDGNRIFYMSVAPRFFGTIAKYLKSEGLLADTGYNRLMIEKPFGTSYDTAAELQNDLENAFDDNQLFRIDHYLGKEMVQNIAALRFGNPIFDAAWNKDYIKNVQVTLSEVLGVEERAGYYDTAGALLDMIQNHTMQIVGWLAMEKPESFTDKDIRAAKNAAFNALKIYDEAEVNKYFVRAQYGAGDSADFKPYLEELDVPADSKNNTFIAGELQFDLPRWEGVPFYVRSGKRLAAKQTRVDIVFKAGTFNFGSEQEAQEAVLSIIIDPKGAIELKLNAKSVEDAFNTRTIDLGWTVSDEDKKNTPEPYERMIHDTMNGDGSNFADWNGVSIAWKFVDAISAVYTADKAPLETYKSGSMGPEASDKLLAANGDAWVFKG

Legend:
Assay in all cases: retention with aggregates on a 0.1-μm filter, SDS-PAGE
[1] = target: B2
DnaK = DnaK (UniProt P0A6Y8 1-638)
ClpB95(E279Q/E678Q) = ClpB95(E279Q/E678Q) (E. coli, UniProt P63284 1-857, E279Q | E678Q)

B1: binds [1].

B2: binds (DnaK); binds (ClpB95(E279Q/E678Q)).
